US20250092426, “CAS ENDONUCLEASES AND RELATED METHODS” (Flagship Pioneering Innovations VII, LLC, published 2025)

Target: T1, CasEnd-33 (synthetic construct)
T1 chain: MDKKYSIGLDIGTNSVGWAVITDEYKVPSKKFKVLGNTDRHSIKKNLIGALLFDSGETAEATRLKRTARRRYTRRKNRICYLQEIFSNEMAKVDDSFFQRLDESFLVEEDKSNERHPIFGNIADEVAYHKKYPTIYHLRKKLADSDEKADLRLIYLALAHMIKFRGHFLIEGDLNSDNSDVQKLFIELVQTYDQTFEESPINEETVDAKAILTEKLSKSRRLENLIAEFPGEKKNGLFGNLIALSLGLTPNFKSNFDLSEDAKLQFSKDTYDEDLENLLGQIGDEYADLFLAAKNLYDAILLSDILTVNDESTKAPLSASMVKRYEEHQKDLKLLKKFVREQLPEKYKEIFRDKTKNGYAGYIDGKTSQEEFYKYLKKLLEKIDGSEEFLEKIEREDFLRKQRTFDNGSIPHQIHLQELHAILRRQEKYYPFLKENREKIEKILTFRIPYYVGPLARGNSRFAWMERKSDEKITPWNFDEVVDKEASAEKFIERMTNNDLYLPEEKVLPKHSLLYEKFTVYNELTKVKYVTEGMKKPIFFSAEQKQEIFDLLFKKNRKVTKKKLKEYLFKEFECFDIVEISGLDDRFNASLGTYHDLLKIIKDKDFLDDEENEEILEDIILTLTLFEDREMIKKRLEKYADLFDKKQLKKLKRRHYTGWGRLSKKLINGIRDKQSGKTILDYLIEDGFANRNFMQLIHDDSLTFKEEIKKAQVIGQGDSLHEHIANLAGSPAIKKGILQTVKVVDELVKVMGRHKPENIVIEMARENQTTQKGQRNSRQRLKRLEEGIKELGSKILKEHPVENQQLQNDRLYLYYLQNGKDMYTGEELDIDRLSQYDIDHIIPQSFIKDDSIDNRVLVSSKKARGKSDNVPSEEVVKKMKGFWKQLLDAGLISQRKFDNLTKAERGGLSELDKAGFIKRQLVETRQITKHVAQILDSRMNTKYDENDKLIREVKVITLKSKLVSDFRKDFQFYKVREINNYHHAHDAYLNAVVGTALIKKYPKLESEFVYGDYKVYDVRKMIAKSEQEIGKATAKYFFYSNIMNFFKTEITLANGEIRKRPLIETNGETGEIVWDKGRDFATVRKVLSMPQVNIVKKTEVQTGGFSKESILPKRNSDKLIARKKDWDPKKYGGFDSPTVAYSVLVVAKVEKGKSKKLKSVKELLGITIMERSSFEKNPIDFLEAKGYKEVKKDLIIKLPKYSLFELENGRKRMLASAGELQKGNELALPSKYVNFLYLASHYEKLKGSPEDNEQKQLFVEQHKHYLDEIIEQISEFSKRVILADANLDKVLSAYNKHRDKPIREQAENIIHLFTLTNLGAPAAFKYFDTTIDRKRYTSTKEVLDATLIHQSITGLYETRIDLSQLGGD
Test: cell_activity; +++; HEK293T; PAM not stated
Outline: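 Editing activity was scored as the fraction of GFP+ cells on day 4 by flow cytometry. BFP-expressing HEK293T cells (250,000) received by nucleofection 200 ng plasmid for the RT-Cas fusion protein and 200 ng template RNA plasmid designed to convert BFP to GFP.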

B1: BFP-to-GFP template RNA ; BFP reporter protospacer (ssRNA ; dsDNA)
RNA: GCCGAAGCACUGCACGCCGUGUUUUAGAGCUAGAAAUAGCAAGUUAAAAUAAGGCUAGUCCGUUAUCAACUUGAAAAAGUGGCACCGAGUCGGUGCACCCUGACGUACGGCGUGCAGUGCUU
DNA 1: GCCGAAGCACTGCACGCCGT
DNA 2: ACGGCGTGCAGTGCTTCGGC
- activity: ≥ 100 % of reference
